The results in this text go back to PMC5141497, “NMR studies on the interactions between yeast Vta1 and Did2 during the multivesicular bodies sorting pathway” (Scientific Reports, 2016).

The target in the test is T1, Vta1 N-terminal domain (residues 1–167) (S. cerevisiae, UniProt Q06263 1-167).
T1 construct: Vta1, S. cerevisiae, N-terminal domain with two tandem MIT domains, residues 1-167; Isotope labelled (15N, 13C, 70% 2H) or unlabelled, depending on the NMR sample; also called Vta1NTD; WT Vta1NTD; source: E. coli BL21(DE3), purified (Ni-NTA, ULP1 cleavage, second Ni-NTA, Resource Q); not shown: His6, N-terminal, cleaved; SUMO, N-terminal, cleaved
T1 sequence (looked up): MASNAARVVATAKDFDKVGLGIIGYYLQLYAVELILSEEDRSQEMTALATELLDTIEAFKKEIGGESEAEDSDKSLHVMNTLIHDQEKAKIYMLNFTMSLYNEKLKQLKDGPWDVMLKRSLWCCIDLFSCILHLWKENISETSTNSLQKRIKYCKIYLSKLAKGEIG
Put plainly: ITC; about 0.1 mM Vta1NTD titrated with 2.0 mM Did2_(176–204) peptide, iTC-200, 25 °C, 25 mM sodium phosphate pH 7.0, 50 mM NaCl, one set of sites model. As to conditions: both partners purified. Background: ITC needs no label: the signal is the heat of the interaction.

B1: Did2 fragment (176–204 aa) (peptide)
chain: WNVPEIKAKEVNVDDEKEDKLAQRLRALRG
notes: extra tryptophan inserted at the N-terminus of the peptide to estimate its concentration; Natural stretch with one added N-terminal Trp; Isotope labelled (15N, 13C) or unlabelled, depending on the NMR sample; source: E. coli BL21(DE3), purified (Ni-NTA, Resource Q, ULP1 cleavage, Superdex 75), lyophilized; not shown: His6, N-terminal, cleaved; SUMO, N-terminal, cleaved
By Kd is commonly meant the concentration at which binding is half-saturated. Read a low Kd as higher affinity. For orientation: stoichiometry N means the number of molecules, sites or subunits per partner or assembly. As for B1, the Kd worked out at 12.8 ± 1 µM, the dH is -2.7 kcal/mol and the “stoichiometry N” value stood at 1.16 ± 0.0266.
